The nature of the data set: soluble on expression in E. coli; label from the status in PepcDB or PDB records.
Consider “MTPISGRCEMAEVTNIPNPGHTSSWYAASANVKSVRPTLEGALEADVCIIGGGFTGISAALELSERGYAVIVLEGVRVGFGASGRNGGQIVNGYSRDLETIARRYGHEKAVKLGEMSLEGGTIIRSRVAKYGIDCDLVDGGFFAAFTPKQIREMEAHKAHWEKHGHGGLEMVSEADVGQYVKTNRYAGGMIDRFGGHIHPLNLVQGEAAAAESLGARIFENSRVIAVEQGANPIVRTAMGSVKAKYVLVCGNAYLGTLLPEIGERMMPVSSQVMATEPLDADLIEALLPANYCVEDANYILDYYRRTSDNRLLYGGGIGYGGSDPADLTGVIRPNMLKTFPQLEKTKIEFAWSGNFALTLTRIPHMGRLSDNIYFSHGDSGHGVTTTHLLGKILGEAVAGHAERFDIWSSLPNYPFPGGKTFRVPLTMLGAWWYGLRDKLGLLEHHHHHH”, for which the “soluble on expression in E. coli” value is recorded as “not soluble”. For the sequence “MTPKRALISLTSYHGPFYKDGAKTGVFVVEILRSFDTFEKHGFEVDFVSETGGFGWDEHYLPKSFIGGEDKMNFETKNSAFNKALARIKTANEVNASDYKVFFASAGHGALFDYPKAKNLQDIASKIYANGGVIAAICHGPLLFDGLIDIKTTRPLIEGKAITGFPLEGEIALGVDDILRSRKLTTVERVANKNGAKYLAPIHPWDDYSITDGKLVTGVNANSSYSTTIRAINALYSVEHHHHH”, the “soluble on expression in E. coli” value is “soluble”.

Take “MTPLERYQADLKRPDFFHDSAQENAVRHLQRLYEDLVAAHDSKPGLFGKLFGKKEPTLVKGLYFWGGVGRGKTYLVDTFFEALPFQDKVRTHFHRFMKRVHEEMKTLKGERNPLTIIAKRFSDEARVICFDEFFVSDITDAMILGTLMEELFKNGVTLVATSNIVPDGLYKDGLQRARFLPAIALIKQNTDIVNVDSGVDYRLRHLEQAELFHFPLNDAAQESMRKSFKALTPDCAETVENDVLMIENREIRALRTCDDVAWFDFRELCDGPRSQNDYIELGKIFHAVLLSGVEQMDVSTDDIARRFINMVDEFYDRNVKLIISAEVELKDLYTGGRLMFEFQRTLSRLLEMQSHEFLSRAHRP”: the “soluble on expression in E. coli” value was “not soluble”. “MTPLGPASSLPQSFLLKCLEQVRKIQGDGAALQEKLCATYKLCHPEELVLLGHSLGIPWAPLSSCPSQALQLAGCLSQLHSGLFLYQGLLQALEGISPELGPTLDTLQLDVADFATTIWQQMEELGMAPALQPTQGAMPAFASAFQRRAGGVLVASHLQSFLEVSYRVLRHLAQP”: the “soluble on expression in E. coli” value is on record as “soluble”. In the case of “MTPTLETKYVFTITARIGDVTSAGEIGTGVRRIIPILGGEVKGEGISGQVLPFGADFQIIRPNELIELEAKYAFETDDGAVVYVENVGIRFGPVELLRKLKRGEPVDPKVIYFRTRPRFETGHPNYQWLMQYLFVGSAARHADRVVIDVHQVL” it was “soluble”. In the case of “MTPTPLHSITPFSMLDFPSMLSCILWFSGCNLACSYCYNPEFLKESGKIDLEGLLSFLRSRVGLLEGVVFSGGEATLFAGLPLWMEEVRSLGFKIKLDTNGTNPAMLKELLQKGYLDYVAMDFKGKEERFGMITGREFYGRFLESLEILLSSSIPFEIRTTVHSYLLQEEDIAEMAALLKERG” it was “not soluble”. In the case of “MTQEYQLRILPEIAANEQRLKEYISKEKGINLRNITATRILKRSIDARQRTIFVNLKVRAYINEMPKEDEFERTIYNNVEGKPQVIVVGAGPGGLFAALRLIELGLRPIIVERGKDVRERKKDLAQISREHTVDPESNYSFGEGGAGAYSDGKLYTRSKKRGNIDKILNVFCQHGASAAILADAHPHIGTDKLPRVIENMRNTIIECGGEVHFQTRMDALIIENNEIKGIETNTGKTFLGPVILATGHSARDVYRWLAANGVTIEAKGIAVGVRLEHPAMLIDQIQYHNKNGRGKYLPAAEYSFVTQAEGRGVYSFCMCPGGFIVPAASGPEQVVVNGMSPSNRGSRWSNSGMVVEIQPEDFISGELKMESGELAAQQNAQLLAINPLLSNSQLSTLKTQLTPLHFQEELERQCWLQGGRRQTAPAQRMLDFTRKKLSFDLPESSYSPGLISSPLHFWMPDFISKRLSLGFQQFGRTSHGFLTNEAVMIGVETRTSSPVRIVRDKETLQHVTVRGLFPCGEGAGYAGGIVSAGVDGERCAEAVANYINHLEHHHHHH” it was “not soluble”; in that of “MTQLATICYIDNGDSLLLLHRNKKENDVHKGKWISVGGKLEAGETPDECARREILEETHLTVTEMAFKGIITFPEFTPGHDWYTYVFKVTGFEGDLISDEESREGTLEWVPYDQVLEKPTWEGDYDIFKWILEDRSFFSAKFTYDQNNQLMDKSVTFY”, “not soluble”. Regarding “MTQQLVKKGQQISLKIKRLGINGEGIGYYKKLIIFVPGALPKEEVTATITNVTPKFAEGTLQSVKKAAKDRVVPPCPVYETCGGCQLQHLAYKAQLDFKKDLLKQALNKFKPANYQNYELRKTIGMDNPWNYRNKAQFQLRQIDGQVEAGLYQADSHQLVPIDNCLVQQPATTKVMNTLVDLLNDFQLPIYDERKNSGIFRTLMVRVGIQTGEVQVVFITQSQKFPQKEKMVRAINEQLPEVVSIMQNVQNKKTSLVMGDDTLHLWGKESIEEHINDVVFDLSPRAFFQLNPEQTEVLYNEGIKALDLQPNETVVDAYCGVGTIGLSLAKQAHQVRGMDTIPAAIDDARFNAKRLGVTNTHYAVGTAEDLLPKWFKEGFKPDAIVVDPPRTGLDRKLLTALLKQPPKKMVYISCNVSTLARDLVQLAKVYQVDYLQSVDMFPQTARCEVVVKLTRK”, the “soluble on expression in E. coli” value was “not soluble”. In the case of “MTQRDTGRLDAIVLAAGRGVRFGGGKLTALLDGDPLVAAALLTAFLAPARRVVVAVGPEPDVRQAVEATATRLLARERLVLVPIDDPSAGMGASLAAAARSLPGDTDGVFVFLGDMPRIDPATPRHLAAALRDPGDIVAPTYLGRRGHPVLFGARWAPVLGALSGDEGARAIVDKAGESLVLVPVDDPGVHLDVDRPSDLARVQTDRRTLLEHHHHHH”, the “soluble on expression in E. coli” value was “soluble”. The entry for “MTQSNPFQQYGITSGLAAAAAAKASVLAAMGTISDYVGVPTPIGLRIEVKVEMMKQIDARSGIAAVRKFSGDNPDTLNGALFESRAVIRDDGLINIFAGEGIGVAVSDGLPVRRGDPAINPVARMMIENAVREVSGSAGFDVYISVPGGEDLARDTMNPRVGISGGISILGTTGIEEPVSGPDYEAHIEYLLQTGRCVSTVAVMCPGNTAMRFAESYLRLHPASFILTGDRIGSAIEMAIEKGYREIVVFGLPGKLVKMAAGVMNTHSRIADARFETIAAYAALNGADRDTISKILSSNTVESAFAVLRSIGLLDSVAGAIASRIVERLRSPVWQIRRILLRHDRFRRQAIRVSPVAGHIETGE” is “not soluble”; for “MTQVTVKELAQVVDTPVERLLLQMRDAGLPHTSAEQVVTDSEKQALLTHLKGSHGDRASEPRKITLQRKTTTTLKVGGSKTVSVEVRKKKTYVKRSPDEIEAERQRELEEQRAAEEAERLKAEEAAARQRAEEEARKAEEAARAKAAQEAAATAGAEPAVVADVAVAEPVAKPAAVEERKKEEPRRVPKRDEDDDRRDRKHTQHRPSVKEKEKVPAPRVAPRSTDEESDGYRRGGRGGKSKLKKRNQHGFQNPTGPIVREVNIGETITVAELAAQMSVKGAEVVKFMFKMGSPVTINQVLDQETAQLVAEELGHKVKLVSENALEEQLAESLKF” it is “not soluble”; for “MTRLLDATWEKELLAASARLSQAQEENFLDLVDAAEGRIDETIARVLLRTFSAKDDYGTQERVVSVLSTGADQVVIDAIVEEMPRLALEAPEWAQTLLGTEVEFRPDLTARALSQAPTICRIAAENILKNEDFQSQYPNAALVLGQLDA” it is “not soluble”. The entry for “MTRLPKLAVFDLDYTLWPFWVDTHVDPPFHKSSDGTVRDRRGQNIQLYPEVPEVLGRLQSLGVPVAAASRTSEIQGANQLLELFDLGKYFIQREIYPGSKVTHFERLHHKTGVPFSQMVFFDDENRNIIDVGRLGVTCIHIRDGMSLQTLTQGLETFAKAQAGL” is “soluble”. In the case of “MTRQHSTQPDPKLDLVLERTIDVPPALVWQAWTQPEHIKHWLTPAPWQTVRCDVDLRPGGRFRFVMRSPEGEEHTHDCCYLEIVEGSRLVWTNALLPGFRPAGGGGDVPAFTAVIRIEPHDQGTRYTATAMHGTQAGCRQHSDMGFHDGWGAALDQLVAHARNMQQASLEHHHHHH”, the “soluble on expression in E. coli” value was “soluble”. The entry for “MTSEQNIQTFRDFLTQYNLVAEQCFNSCVNEFGSRTVSGKEESCANNCLDKFLKMTQRVSQRFQEHQLLNAQANGAAIKVENGGKINKIQ” is “not soluble”.

With “MTSIQQRDAQSVLAAIDNLLPEIRDRAQATEDLRRLPDETVKALDDVGFFTLLQPQQWGGLQCDPALFFEATRRLASVCGSTGWVSSIVGVHNWHLALFDQRAQEEVWGEDPSTRISSSYAPMGAGVVVDGGYLVNGSWNWSSGCDHASWTFVGGPVIKDGRPVDFGSFLIPRSEYEIKDVWYVVGLRGTGSNTLVVKDVFVPRHRFLSYKAMNDHTAGGLATNSAPVYKMPWGTMHPTTISAPIVGMAYGAYAAHVEHQGKRVRAAFAGEKAKDDPFAKVRIAEAASDIDAAWRQLIGNVSDEYALLAAGKEIPFELRARARRDQVRATGRSIASIDRLFEASGATALSNEAPIQRFWRDAHAGRVHAANDPERAYVIFGNHEFGLPPGDTMV”, the “soluble on expression in E. coli” value is “soluble”. In the case of “MTSLIGTHSGKFHCDEAFACFMLKQLPQFKDHSILRTRDAAQLEKCDIIVDVGGIFDHSKQRYDHHQRGFTDTMRTLEKLNFDTKLSSAGLVYAHYGREVINQILGGNVSSSMIDLFYHRLYEQFVESIDAIDNGISQYDGVPRYHSSGNLSSRTGQFNSHWNEPENDADERFQQAMQFIGEEFSRSVKYLANVWWPAREIIEAAVDKRFEIDASGRIILIENGGCPWKEHFFDIEVEKNIADDNITYILFSDSTNASWRVQAIPVDKMSSFENRMPLPAAWRGLRDDDLSKESGIPGGVFVHISGFIGGNLTREGAIAMARKALEIGEENPVKKAKLGN” it was “soluble”; in that of “MTSRGDSREKILHTASRLSQLQGYHATGLNQIVKESGAPKGSLYHFFPNGKEELAIEAVTYTGKIVEHLIQQSMDESSDPVEAIQLFIKKTASQFDNTESIKGIPVGLLASETALISEPLRTVCMKVFKSWEAVFARKLMENGFAEEEANQLGTLINSMIEGGIMLSLTNKDKTPLLLIAEQIPVLVRKKG”, “soluble”. In the case of “MTSSLVLILAPLALVAIGEAAFGNSSKIFEIPGLEVMASDKYPHFTTIETVSRTKVHRHRREVIAGQIYDWNSYEIPFQIWGGDYNFQSLIRRGIRMWEDSTCLRFKENQQSRDAIRYVLEKGDSCFTEYIGRNGGHQDIIIGSECAEEYVVAHETGHALGFWHTHQRPDRDRHISINWKNVMEEATASFMPFRSMLQAFGIRQVSPRRVPYDYGSLMHYHAVAHAVKVSDFTIVPKELKYVTTMGTEKMAFLDAKVINDIYCPNACQGRNHLNCLAGGYPDPNNCNVCRCPEGLGGPDCGRLQPSPCGGEIHASDQWQTLSSPSGRDVHCYWRISVPEGSRVRFRLSDGEFPCSYGCQSYVEIKHKLDVRLTGFRSCCYRPKEDTVSESNQIFVIYHPNGRTARFSLRFRRQA” it was “not soluble”.

Source of the values: the DeepSol protein solubility set.
